Laboratory results reported in publication PMC7889650.

Biological target: Nle-substituted 187-bp NCP (Xenopus laevis)
Assay: cryo-EM structure

## NSD2C-E1099K/T1150A (from UniProt O96028 661-1365) (domain or fragment)
  stoichiometry N: 1 NSD2 per NCP
